The text below walks through data of the supplement of paper PMC5998384.

Data set [1] relates to HeLa Kyoto. Nature of the data set: solubility in G1/S (NP-40 vs SDS abundance) (log2 ratio); higher = more soluble. Conditions: cell cycle stage: G1/S.
Data set [2] deals with HeLa Kyoto. Put plainly: solubility change mitosis vs G1/S (difference of NP-40 vs SDS log2 ratios) (log2 ratio difference); higher = more soluble in mitosis.
Data set [3] deals with HeLa Kyoto. Nature of the data set: thermal stability score vs G1/S (z-score of summed log2 fold changes over temperatures); higher = more thermally stable than in G1/S.
Setting [4] is: cell cycle stage: early G1 (4.5 h after nocodazole release).
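Throughout, for solubility change mitosis vs G1/S (difference of NP-40 vs SDS log2 ratios): synchronized HeLa Kyoto cells (double thymidine block for G1/S, nocodazole release for mitosis), protein amounts in NP-40 versus SDS lysates quantified by mass spectrometry, three biological replicates.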
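Throughout, for solubility in G1/S (NP-40 vs SDS abundance): HeLa Kyoto cells arrested at G1/S by double thymidine block, proteins quantified by TMT10plex mass spectrometry in mild NP-40 versus SDS extracts, three biological replicates.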
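Throughout, for thermal stability score vs G1/S (z-score of summed log2 fold changes over temperatures): synchronized HeLa Kyoto cells, proteins quantified by TMT10plex mass spectrometry, three biological replicates, mitosis taken 0.5 h after nocodazole release, G1/S directly after double thymidine block.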

In the case of “MDANSKDKPPETKESAMNNAGNASFILGTGKIVTPQKHAELPPNPCTPDTFKSPLNFSTVTVEQLGITPESFVRNSAGKSSSYLKKCRRRSAVGARGSPETNHLIRFIARQQNIKNARKSPLAQDSPSQGSPALYRNVNTLRERISAFQSAFHSIKENEKMTGCLEFSEAGKESEMTDLTRKEGLSACQQSGFPAVLSSKRRRISYQRDSDENLTDAEGKVIGLQIFNIDTDRACAVETSVDLSEISSKLGSTQSGFLVEESLPLSELTETSNALKVADCVVGKGSSDAVSPDTFTAEVSSDAVPDVRSPATPACRRDLPTPKTFVLRSVLKKPSVKMCLESLQEHCNNLYDDDGTHPSLISNLPNCCKEKEAEDEENFEAPAFLNMRKRKRVTFGEDLSPEVFDESLPANTPLRKGGTPVCKKDFSGLSSLLLEQSPVPEPLPQPDFDDKGENLENIEPLQVSFAVLSSPNKSSISETLSGTDTFSSSNNHEKISSPKVGRITRTSNRRNQLVSVVEESVCNLLNTEVQPCKEKKINRRKSQETKCTKRALPKKSQVLKSCRKKKGKGKKSVQKSLYGERDIASKKPLLSPIPELPEVPEMTPSIPSIRRLGSGYFSSNGKLEEVKTPKNPVKRKDLLRHDPDLHMHQGYDKYDVSEFCSYIKSSSSLGNATSDEDPNTNIMNINENKNIPKAKNKSESENEPKAGTDSPVSCASVTEERVASDSPKPALTLQQGQEFSAGGQNAENLCQFFKISPDLNIKCERKDDFLGAAEGKLQCNRLMPNSQKDCHCLGDVLIENTKESKSQSEDLGRKPMESSSVVSCRDRKDRRRSMCYSDGRSLHLEKNGNHTPSSSVGSSVEISLENSELFKDLSDAIEQTFQRRNSETKVRRSTRLQKDLENEGLVWISLPLPSTSQKAKRRTICTFDSSGFESMSPIKETVSSRQKPQMAPPVSDPENSQGPAAGSSDEPGKRRKSFCISTLANTKATSQFKGYRRRSSLNGKGESSLTALERIEHNGERKQ [CDCA2]”, in the data set on HeLa Kyoto [1], the “solubility in G1/S (log2)” value was -0.581. Also, the “solubility change mitosis (log2)” value in the data set with HeLa Kyoto [2] came to 0.243. In addition, the figures for the thermal stability score in the data set on HeLa Kyoto [3] (setting [4]) and in the data set on HeLa Kyoto [3] (cell cycle stage: mitosis) were 0.00387 and -1.54, respectively.
The corresponding values for “MDEETRHSLECIQANQIFPRKQLIREDENLQVPFLELHGESTEFVGRAEDAIIALSNYRLHIKFKESLVNVPLQLIESVECRDIFQLHLTCKDCKVIRCQFSTFEQCQEWLKRLNNAIRPPAKIEDLFSFAYHAWCMEVYASEKEQHGDLCRPGEHVTSRFKNEVERMGFDMNNAWRISNINEKYKLCGSYPQELIVPAWITDKELESVSSFRSWKRIPAVIYRHQSNGAVIARCGQPEVSWWGWRNADDEHLVQSVAKACASDSRSSGSKLSTRNTSRDFPNGGDLSDVEFDSSLSNASGAESLAIQPQKLLILDARSYAAAVANRAKGGGCECPEYYPNCEVVFMGMANIHSIRRSFQSLRLLCTQMPDPGNWLSALESTKWLHHLSVLLKSALLVVHAVDQDQRPVLVHCSDGWDRTPQIVALAKLLLDPYYRTIEGFQVLVEMEWLDFGHKFADRCGHGENSDDLNERCPVFLQWLDCVHQLQRQFPCSFEFNEAFLVKLVQHTYSCLFGTFLCNNAKERGEKHTQERTCSVWSLLRAGNKAFKNLLYSSQSEAVLYPVCHVRNLMLWSAVYLPCPSPTTPVDDSCAPYPAPGTSPDDPPLSRLPKTRSYDNLTTACDNTVPLASRRCSDPSLNEKWQEHRRSLELSSLAGPGEDPLSADSLGKPTRVPGGAELSVAAGVAEGQMENILQEATKEESGVEEPAHRAGIEIQEGKEDPLLEKESRRKTPEASAIGLHQDPELGDAALRSHLDMSWPLFSQGISEQQSGLSVLLSSLQVPPRGEDSLEVPVEQFRIEEIAEGREEAVLPIPVDAKVGYGTSQSCSLLPSQVPFETRGPNVDSSTDMLVEDKVKSVSGPQGHHRSCLVNSGKDRLPQTMEPSPSETSLVERPQVGSVVHRTSLGSTLSLTRSPCALPLAECKEGLVCNGAPETENRASEQPPGLSTLQMYPTPNGHCANGEAGRSKDSLSRQLSAMSCSSAHLHSRNLHHKWLHSHSGRPSATSSPDQPSRSHLDDDGMSVYTDTIQQRLRQIESGHQQEVETLKKQVQELKSRLESQYLTSSLHFNGDFGDEVTSIPDSESNLDQNCLSRCSTEIFSEASWEQVDKQDTEMTRWLPDHLAAHCYACDSAFWLASRKHHCRNCGNVFCSSCCNQKVPVPSQQLFEPSRVCKSCYSSLHPTSSSIDLELDKPIAATSN [MTMR3]” are -0.000164, -0.15, -0.332 and -0.143.
The corresponding values for “MDGLRQRVEHFLEQRNLVTEVLGALEAKTGVEKRYLAAGAVTLLSLYLLFGYGASLLCNLIGFVYPAYASIKAIESPSKDDDTVWLTYWVVYALFGLAEFFSDLLLSWFPFYYVGKCAFLLFCMAPRPWNGALMLYQRVVRPLFLRHHGAVDRIMNDLSGRALDAAAGITRNVLQVLARSRAGITPVAVAGPSTPLEADLKPSQTPQPKDK [REEP6]” are -0.206, -0.143, 0.664 and -0.943.
